Results on 4 molecules are retold here after publication PMC3659392 (Science translational medicine, 2012).

The target in data set [1] is T1, DprE1 (Mycolicibacterium smegmatis, UniProt A0R607).
T1 sequence (A0R607 1-460): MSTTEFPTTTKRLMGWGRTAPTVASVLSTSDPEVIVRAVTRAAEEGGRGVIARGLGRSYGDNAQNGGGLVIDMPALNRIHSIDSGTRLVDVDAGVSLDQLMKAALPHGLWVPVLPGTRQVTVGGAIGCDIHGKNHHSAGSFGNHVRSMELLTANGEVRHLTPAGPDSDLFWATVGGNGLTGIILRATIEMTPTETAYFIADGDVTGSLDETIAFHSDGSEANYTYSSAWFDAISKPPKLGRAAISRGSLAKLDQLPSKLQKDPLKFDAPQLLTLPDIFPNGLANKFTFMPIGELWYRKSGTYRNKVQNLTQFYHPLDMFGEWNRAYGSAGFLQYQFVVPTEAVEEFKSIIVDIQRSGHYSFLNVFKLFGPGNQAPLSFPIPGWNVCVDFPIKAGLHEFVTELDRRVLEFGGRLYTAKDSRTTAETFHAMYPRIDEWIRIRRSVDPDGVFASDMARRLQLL
The experiment in a line: DCPIP enzyme assay, […] min incubation. It is filed as biochemical.

The target in data set [2] is T1, DprE1. The experiment in a line: crystal structure of covalent adduct. It is filed as biochemical.
Substrate in data set [3]: CC(C)=CCC/C(C)=C/CC/C(C)=C/COP(=O)(O)O[C@@H]1O[C@H](CO)[C@@H](O)[C@H]1O
The data set is described as follows: purified protein. The conditions noted are these: FAD; pH 8.5.

Substrate in data set [4]: O=C1C(Cl)=CC(=Nc2ccc(O)cc2)C=C1Cl
The data set is described as follows: purified protein. The conditions noted are these: FAD electron acceptor re-oxidizing reduced FAD.

What is called IC50 is the concentration at which inhibition is half-maximal. Read a low IC50 as higher potency. With `C[C@H]1COC2(CCN(c3nc(=O)c4cc(C(F)(F)F)cc(N)c4s3)CC2)O1` [BTZ045], the IC50 against DprE1 [1] is 11 µM.
As for `C[C@H]1COC2(CCN(c3nc(=O)c4cc(C(F)(F)F)cc([N+](=O)[O-])c4s3)CC2)O1` [BTZ043], the IC50 at DprE1 [2] was determined as 4.5 µM.
For `C[C@H]1COC2(CCN(c3nc(=O)c4cc(C(F)(F)F)cc(NO)c4s3)CC2)O1` [BTZ046], 19.7 µM corresponded to half-maximal inhibition on DprE1 [1] (IC50).

B1: DprE1 (Mycolicibacterium smegmatis MC2 155) (protein)
chain: MSTTEFPTTTKRLMGWGRTAPTVASVLSTSDPEVIVRAVTRAAEEGGRGVIARGLGRSYGDNAQNGGGLVIDMPALNRIHSIDSGTRLVDVDAGVSLDQLMKAALPHGLWVPVLPGTRQVTVGGAIGCDIHGKNHHSAGSFGNHVRSMELLTANGEVRHLTPAGPDSDLFWATVGGNGLTGIILRATIEMTPTETAYFIADGDVTGSLDETIAFHSDGSEANYTYSSAWFDAISKPPKLGRAAISRGSLAKLDQLPSKLQKDPLKFDAPQLLTLPDIFPNGLANKFTFMPIGELWYRKSGTYRNKVQNLTQFYHPLDMFGEWNRAYGSAGFLQYQFVVPTEAVEEFKSIIVDIQRSGHYSFLNVFKLFGPGNQAPLSFPIPGWNVCVDFPIKAGLHEFVTELDRRVLEFGGRLYTAKDSRTTAETFHAMYPRIDEWIRIRRSVDPDGVFASDMARRLQLL
By Km is commonly meant the substrate concentration at which the rate is half of its maximum. In general, kcat refers to the number of substrate molecules converted per active site and unit of time at saturation. The term kcat/Km denotes the second-order rate constant that governs catalysis at low substrate concentration. For the molecule B1, in “purified protein [3]”, the Michaelis-Menten constant (Km) was 110 µM, the kcat came to 0.212 ± 0.01 s⁻¹ and the kcat/Km stood at 1930 ± 182 M⁻¹ s⁻¹. Also, the Michaelis-Menten constant (Km) in the data set “purified protein [4]” is 4.2 µM.
